Measurements taken from the supplement of paper PMC7877785.
± gives the uncertainty stated by the source.

Assay: self-splicing fitness, log relative to wild type (ln ratio); higher = more splicing; Tetrahymena group I intron in knt gene, E. coli kanamycin selection, DiMSum; sequences stand for … in CUCUCU…GGAGGGAAAAGUUAUCAGGCAUGCACCUGGUAGCUAGUCUUUAAACCAAUAGAUUGCAUCGGUUUAAAAGGCAAGACCGUCAAAUUGCGGGAAAGGGGUCAACAGCCGUUCAGUACCAAGUCUCAGGGGAAACUUUGAGAUGGCCUUGCAAAGGGUAUGGUAAUAAGCUGACGGACAUGGUCCUAACCACGCAGCCAAGUCCUAAGUCAACAGAUCUUCUGUUGAUAUGGAUGCAGUUCACAGACUAAAUGUCGGUCGGGGAAGAUGUAUUCUUCUCAUAAGAUAUAGUCGGACCUCUCCUUAAUGGGAGCUAGCGGAUGAAGUGAUGCAACACUGGAGCCGCUGGGAACUAAUUUGUAUGCGAAAGUAUAUUGAUUAGUUUUGGAGUACUCGUGGUCG
Summary of the method: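 A randomised library covering all eight P1ex-region intron nucleotides was built with the intron in the knt kanamycin-resistance gene on pET-22b(+) and held in E. coli BL21(DE3). Cells were grown overnight at 37°C or 30°C on LB agar, with or without 25 μg/mL kanamycin, plus 100 μg/mL carbenicillin, 50 μM IPTG and 0.2% rhamnose, and pooled colonies were amplicon-sequenced on an Illumina HiSeq 2500. DiMSum fitness is the error-weighted combination of wild-type-normalised replicate fold changes, kanamycin versus none.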

GCUAAGCAAUAUUACGCAUU
self-splicing fitness (ln) (30 °C): -0.91 ± 0.065 | self-splicing fitness (ln) (37 °C): -0.163 ± 0.084

GCUAAGCAAUAUUACGCCAA
self-splicing fitness (ln) (30 °C): -2.35 ± 0.33 | self-splicing fitness (ln) (37 °C): -1.74 ± 0.41

GCUAAGCAAUAUUACGCCAC
self-splicing fitness (ln) (30 °C): -1.43 ± 0.35 | self-splicing fitness (ln) (37 °C): -2 ± 0.38

GCUAAGCAAUAUUACGCCCU
self-splicing fitness (ln) (30 °C): -0.606 ± 0.19 | self-splicing fitness (ln) (37 °C): -0.768 ± 0.15

GCUAAGCAAUAUUACGCCUU
self-splicing fitness (ln) (30 °C): -1.43 ± 0.11 | self-splicing fitness (ln) (37 °C): -0.0502 ± 0.14

GCUAAGCAAUAUUACGCGCU
self-splicing fitness (ln) (30 °C): -2.47 ± 0.16 | self-splicing fitness (ln) (37 °C): -1.57 ± 0.23

GCUAAGCAAUAUUACGCGGC
self-splicing fitness (ln) (30 °C): -0.424 ± 0.19 | self-splicing fitness (ln) (37 °C): -2.64 ± 0.5

GCUAAGCAAUAUUACGCUGA
self-splicing fitness (ln) (30 °C): -1.48 ± 0.18 | self-splicing fitness (ln) (37 °C): -1.02 ± 0.2

GCUAAGCAAUAUUACGCUUG
self-splicing fitness (ln) (30 °C): -3.24 ± 0.17 | self-splicing fitness (ln) (37 °C): -1.71 ± 0.18

GCUAAGCAAUAUUACGGUCG
self-splicing fitness (ln) (30 °C): -2.27 ± 0.11 | self-splicing fitness (ln) (37 °C): -1.34 ± 0.14

GCUAAGCAAUAUUACGGUGU
self-splicing fitness (ln) (30 °C): -2.48 ± 0.087 | self-splicing fitness (ln) (37 °C): -1.6 ± 0.1

GCUAAGCAAUAUUACGUCCA
self-splicing fitness (ln) (30 °C): -1.94 ± 0.32 | self-splicing fitness (ln) (37 °C): -0.684 ± 0.23

GCUAAGCAAUAUUACGUCCG
self-splicing fitness (ln) (30 °C): -1.53 ± 0.13 | self-splicing fitness (ln) (37 °C): -0.712 ± 0.15

GCUAAGCAAUAUUACGUCGC
self-splicing fitness (ln) (30 °C): -2.46 ± 0.19 | self-splicing fitness (ln) (37 °C): -2.55 ± 0.29

GCUAAGCAAUAUUACGUCUG
self-splicing fitness (ln) (30 °C): -1.84 ± 0.085 | self-splicing fitness (ln) (37 °C): -0.987 ± 0.096

GCUAAGCAAUAUUACGUUAA
self-splicing fitness (ln) (30 °C): -2.72 ± 0.16 | self-splicing fitness (ln) (37 °C): -1.74 ± 0.18

GCUAAGCAAUAUUACGUUCC
self-splicing fitness (ln) (30 °C): -1.14 ± 0.087 | self-splicing fitness (ln) (37 °C): -0.467 ± 0.14

GCUCAGCAAUAUUACGACUG
self-splicing fitness (ln) (30 °C): -2.66 ± 0.35 | self-splicing fitness (ln) (37 °C): 0.178 ± 0.19

GCUCAGCAAUAUUACGAGCC
self-splicing fitness (ln) (30 °C): -3.98 ± 0.31 | self-splicing fitness (ln) (37 °C): -3.64 ± 0.39

GCUCAGCAAUAUUACGAGGA
self-splicing fitness (ln) (30 °C): -0.479 ± 0.12 | self-splicing fitness (ln) (37 °C): -0.741 ± 0.12

GCUCAGCAAUAUUACGAUUG
self-splicing fitness (ln) (30 °C): -2.83 ± 0.12 | self-splicing fitness (ln) (37 °C): -1.11 ± 0.12

GCUCAGCAAUAUUACGCAAU
self-splicing fitness (ln) (30 °C): -1.02 ± 0.078 | self-splicing fitness (ln) (37 °C): 0.487 ± 0.11

GCUCAGCAAUAUUACGCGGC
self-splicing fitness (ln) (30 °C): -3.83 ± 0.47 | self-splicing fitness (ln) (37 °C): -1.46 ± 0.26

GCUCAGCAAUAUUACGGCAG
self-splicing fitness (ln) (30 °C): -2.91 ± 0.22 | self-splicing fitness (ln) (37 °C): -2.82 ± 0.38

GCUCAGCAAUAUUACGGCUA
self-splicing fitness (ln) (30 °C): -0.707 ± 0.13 | self-splicing fitness (ln) (37 °C): -0.758 ± 0.12

GCUCAGCAAUAUUACGGGCG
self-splicing fitness (ln) (30 °C): -1.61 ± 0.071 | self-splicing fitness (ln) (37 °C): -1.22 ± 0.085

GCUCAGCAAUAUUACGGGGA
self-splicing fitness (ln) (30 °C): -0.491 ± 0.054 | self-splicing fitness (ln) (37 °C): 0.325 ± 0.075

GCUCAGCAAUAUUACGGUGA
self-splicing fitness (ln) (30 °C): -3.42 ± 0.25 | self-splicing fitness (ln) (37 °C): -1.69 ± 0.16

GCUCAGCAAUAUUACGUAGC
self-splicing fitness (ln) (30 °C): -1.23 ± 0.12 | self-splicing fitness (ln) (37 °C): -1.43 ± 0.16

GCUCAGCAAUAUUACGUCCC
self-splicing fitness (ln) (30 °C): -0.208 ± 0.24 | self-splicing fitness (ln) (37 °C): 0.272 ± 0.24

GCUCAGCAAUAUUACGUCGG
self-splicing fitness (ln) (30 °C): -2.71 ± 0.14 | self-splicing fitness (ln) (37 °C): -0.555 ± 0.15

GCUCAGCAAUAUUACGUCUA
self-splicing fitness (ln) (30 °C): -0.844 ± 0.1 | self-splicing fitness (ln) (37 °C): -0.494 ± 0.097

GCUCAGCAAUAUUACGUGGA
self-splicing fitness (ln) (30 °C): -1.91 ± 0.1 | self-splicing fitness (ln) (37 °C): -1.63 ± 0.12

GCUCAGCAAUAUUACGUUAA
self-splicing fitness (ln) (30 °C): -1.32 ± 0.17 | self-splicing fitness (ln) (37 °C): -1.28 ± 0.16

GCUGAGCAAUAUUACGAACG
self-splicing fitness (ln) (30 °C): -1.53 ± 0.18 | self-splicing fitness (ln) (37 °C): -1.12 ± 0.23

GCUGAGCAAUAUUACGAACU
self-splicing fitness (ln) (30 °C): -2.49 ± 0.33 | self-splicing fitness (ln) (37 °C): -0.576 ± 0.21

GCUGAGCAAUAUUACGAGUU
self-splicing fitness (ln) (30 °C): -2.73 ± 0.13 | self-splicing fitness (ln) (37 °C): -0.949 ± 0.12

GCUGAGCAAUAUUACGCAGG
self-splicing fitness (ln) (30 °C): -1.66 ± 0.13 | self-splicing fitness (ln) (37 °C): -1.56 ± 0.15

GCUGAGCAAUAUUACGCAGU
self-splicing fitness (ln) (30 °C): -4.98 ± 0.45 | self-splicing fitness (ln) (37 °C): -3.31 ± 0.34

GCUGAGCAAUAUUACGCCAG
self-splicing fitness (ln) (30 °C): -3.69 ± 0.25 | self-splicing fitness (ln) (37 °C): -2.73 ± 0.41

GCUGAGCAAUAUUACGCCGA
self-splicing fitness (ln) (37 °C): -1.38 ± 0.32

GCUGAGCAAUAUUACGCGAU
self-splicing fitness (ln) (30 °C): -2.78 ± 0.17 | self-splicing fitness (ln) (37 °C): -2.59 ± 0.25

GCUGAGCAAUAUUACGCGGC
self-splicing fitness (ln) (37 °C): -1.22 ± 0.41

GCUGAGCAAUAUUACGCUAG
self-splicing fitness (ln) (30 °C): -3.28 ± 0.16 | self-splicing fitness (ln) (37 °C): -1.27 ± 0.14

GCUGAGCAAUAUUACGGAAA
self-splicing fitness (ln) (30 °C): -2.86 ± 0.25 | self-splicing fitness (ln) (37 °C): -2.63 ± 0.32

GCUGAGCAAUAUUACGGCCG
self-splicing fitness (ln) (30 °C): -3.94 ± 0.32 | self-splicing fitness (ln) (37 °C): -2.37 ± 0.39

GCUGAGCAAUAUUACGGGAU
self-splicing fitness (ln) (30 °C): -2.39 ± 0.14 | self-splicing fitness (ln) (37 °C): -1.34 ± 0.13

GCUGAGCAAUAUUACGGGCC
self-splicing fitness (ln) (30 °C): -2.39 ± 0.32 | self-splicing fitness (ln) (37 °C): -2.27 ± 0.39
